Test results reported in the supplement of paper PMC11865577.

How the values were obtained:
Assay in all cases: pull-down binding Z-score (relative to library population); higher = stronger binding
[1] = system: TO-N3-2 (biotin conjugate); conditions: RNA library: Library-2
Method in brief: (§1)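 Streptavidin beads with 100 pmol of biotin-conjugated small molecule were incubated for 60 min at 25 °C with 1 μg of heat-folded Cy5- or Cy3-end-labelled RNA library in phosphate/NaCl/KCl buffer. Bound RNA was eluted in hot SDS after three washes and hybridised to a DNA barcode microarray at 55.5 °C for 20 h. Each binding score is a library-referenced Z-score, computed after beads-only subtraction and a trimmed mean of barcoded replicate probes.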

[2] = system: TO-3-N3 (biotin conjugate); conditions: RNA library: Library-2
Method in brief: as §1

[3] = system: G-clamp-N3 (biotin conjugate); conditions: RNA library: Library-1 (pre-miRNA loops + repeats)
Method in brief: as §1

[4] = system: TO-N3 (biotin conjugate); conditions: RNA library: Library-2
Method in brief: as §1

[5] = system: TO-3-N3-2 (biotin conjugate); conditions: RNA library: Library-2
Method in brief: as §1

Sequence	pull-down binding Z-score [1]	pull-down binding Z-score [2]	pull-down binding Z-score [3]	pull-down binding Z-score [4]	pull-down binding Z-score [5]
GAUGUAUCCAAGUACCCUGUGUUAUUUGGCAAUAAAUACAUC [hsa-mir-1298]	-0.35	-0.204	-1.2	-1.27	-0.361
GUGAUUGUCUUCCUCACUCAAUCAG [hsa-mir-4704]	-0.0609	0.145	-1.11	0.0942	-0.174
UAUAACUUGAAGAAUUCAAAUAGUCAUG [hsa-mir-3146]	-0.75	-0.804	-0.817	-1.06	-0.34
GAGGUCUUCCCAUGCUAAGAAGUCCUC [hsa-mir-2116]	-0.154	1.51	-0.641	1.19	0.115
CUACUAGUUUGUAGUAGUUCGUAGCAG [hsa-mir-3919]	0.637	-0.438	0.56	-0.197	0.295
GCAGGGACCCCUCCAAGUUGGGGACGGCAGC [hsa-mir-6858]	1.09	0.172	-0.0891	0.676	0.0497
GAGUUGCUGAGUGGGUUGAUCUC [hsa-mir-6764]	0.652	0.17	0.494	0.122	0.061
UUUGCCUGUAAAAGUAAUGGCAAA [hsa-mir-548d-1]	-0.552	-0.488	-0.646	-0.702	-0.105
GUGGCCUUGGACAAGCCUCUUGGUUAC [hsa-mir-4672]	0.885	-0.457	-0.419	-0.141	-0.502
GGCGACUGGUGUCUAAUUUGUUUGUC [hsa-mir-4429]	-0.308	-0.313	0.682	-0.37	-0.265
CUGUGCUGUCUCUGAGCACCG [hsa-mir-6827]	0.586	0.0475	0.0113	0.322	-0.348
UAUUCUGAUGUCCAAGUGGAAA [hsa-mir-372]	-0.504	-0.733	-0.198	-0.772	-0.345
CAGUGUUAGCUCCAGAAGCAUUG [hsa-mir-3170]	0.644	0.0378	1.14	0.171	-0.107
GUGGCUUCAACCAAGUUCAAAGUCAC [hsa-mir-3186]	-0.383	-0.304	-1.08	-0.441	-0.378
CCUGCCCAAAUGGUGGAGCAGAUUCGAGGGGCAGG [hsa-mir-4436b-2_4436b-1]	-0.125	-0.218	2.51	-0.282	0.0731
GGCCACCCAGGGAGUAAGUAGCC [hsa-mir-4480]	1.42	2.34	0.515	2.09	0.908
UUACCCAACGUCUCUGAGUCUCGGUUUUGAGAGGGUGAGUAA [hsa-mir-7973-1]	0.29	0.0875	0.981	0.268	-0.0539
GCACCUGUUUGUGAC [hsa-mir-4718]	-0.201	-0.491	-1.21	-0.457	-0.276
CAGGUGUUCUUAAAAUCACCUG [hsa-mir-875]	-1.05	-0.63	-0.405	-0.806	-0.143
GUCCUGACUGCGUGCCAGGGGC [hsa-mir-3650]	0.488	-0.235	0.903	-0.175	-0.518
UUUGUCAUUAAAGUAAUGCAAA [hsa-mir-548m]	-0.856	0.175	-0.115	0.0311	-0.211

Sequence	pull-down binding Z-score [1]	pull-down binding Z-score [2]	pull-down binding Z-score [3]	pull-down binding Z-score [4]	pull-down binding Z-score [5]
ACACUGGGCUGCCCCCACUGCCCAGUGC [hsa-mir-4277]	0.413	0.676	-0.963	0.594	-0.357
UUCUGCUGAAGACUGGUCUCUUCAUGUGUGAG [hsa-mir-6133]	0.00769	-0.389	-0.872	-0.371	-0.0941
UAGUCUAAUAGGGACUA [hsa-mir-5681b]	-1.21	0.02	2.76	-0.292	-0.0587
AGAACUUUGGUUUU [hsa-mir-4434]	-1.38	-0.711	0.298	-1.1	-0.611
CCGUUUAAAAAGGCAUCUCCAAG [hsa-mir-608]	0.0602	0.0622	-1.45	0.0887	0.433
UUUCUGAAUUUGUGAGA [hsa-mir-4463]	-0.751	-0.00836	-0.0109	-0.277	-0.191
UCAUAAAGAUGAUC [hsa-mir-8067]	0.0453	0.251	-0.0232	0.381	0.0624
UAGGUUGUGUGCUGUCCAGCCUG [hsa-mir-26b]	0.271	-0.484	-0.497	-0.388	-0.429
CUGUAUGUCCUAACAGUGCUUGUAG [hsa-mir-4794]	0.46	-0.28	-0.4	0.0771	-0.0698
UCCAGGGCUCCUGACACCUGGA [hsa-mir-6861]	-0.248	-0.649	-0.943	-0.785	-0.533
CAGACUCUG [hsa-mir-4326]	-0.0772	0.067	1.33	-0.0561	-0.381
CCUUCUGUAUACAUGUAUACAGGAGGAAGG [hsa-mir-4716]	0.00714	0.507	0.64	0.495	0.0583
UGGGCCAAG [hsa-mir-3620]	0.487	0.746	-0.636	0.825	0.193
GUUGAAAAAUAUCUAUGUAUUAGUAAAC [hsa-mir-649]	-0.74	-0.0443	-0.475	-0.151	-0.281
UGUACAGGUGAGCGGAUGUUCUGCACA [hsa-mir-3120]	1.57	1.53	0.0407	1.67	0.681
GUCCUGCCCUCACUGGGAACCCCCUUCCCUCUGGGUACCAG [hsa-mir-1324]	1.39	1.48	-0.948	1.88	0.477
UAAGUGUCCUAGCACUUA [hsa-mir-374b]	-0.647	0.251	0.214	-0.0395	-0.524
GCUUCUGCUGCAUGAUCUCCGAGUCCCUGGGGGUAGAGAUGAUGGGGCACUGGGAGGU [hsa-mir-1282]	0.851	0.113	0.676	0.59	0.312
UCUGUUGCUUGAAAGAAGAGA [hsa-mir-526a-1]	0.215	0.85	1.67	0.922	-0.154
CAUUACUAAACUCAGUAAUG [hsa-mir-451b]	-1.68	-0.822	0.93	-1.23	-0.862
GAUGAAGAUUAAUCCCUAAUCCCCAACA [hsa-mir-6757]	0.739	-0.283	-1.77	0.0739	-0.0684

Sequence	pull-down binding Z-score [1]	pull-down binding Z-score [2]	pull-down binding Z-score [3]	pull-down binding Z-score [4]	pull-down binding Z-score [5]
AGAGCGUGGGCUGGGGUUCAGGGACACCCUCU [hsa-mir-1229]	1.86	1.15	1.46	1.57	0.738
GACGUGAAGGGACCACAUCCCGCUUCAUGUC [hsa-mir-4697]	0.229	0.541	-0.0598	0.374	-0.362
CUGGCUUCUCUGGUUCUCCAGCUUACAG [hsa-mir-1269b]	0.333	-0.401	-1.06	-0.0501	-0.356
GAUUCUUGAGGCUUGGAAGAGUAAGGAUC [hsa-mir-6866]	1.07	-0.0976	-0.0295	0.34	0.281
AGUGAAAUAAAGGUCCAUCUCCUGCCUAUUUAUUACUUUGCU [hsa-mir-1243]	-0.5	-0.671	-1.12	-0.718	-0.112
GUGUUUGUGACAUAAUUUGU [hsa-mir-325]	-0.231	0.174	-1.02	0.0205	0.252
CUGCAGUGAGUAGGUCUGCCU [hsa-mir-4254]	1.17	0.19	-0.362	0.705	0.253
GAUCCGGGAACCCACAGCCCCGUUC [hsa-mir-6783]	1.08	0.496	0.0468	0.886	0.149
GAGCUUCGUGUACAUUAUCUAUUAGAAAAUGAAGUAC [hsa-mir-4724]	0.0115	0.0277	-0.219	0.0579	-0.033
CUUAGAUUUUUCCAUCUUUGUAUCUAG [hsa-mir-29b-2]	-0.98	-0.805	0.453	-0.995	-0.236
CCUUUCCCCUCAGACCAAGG [hsa-mir-3131]	-0.176	-0.315	-0.0682	-0.412	-0.26
GGCACCUACGAUACCCAGUGCC [hsa-mir-3116-2]	0.165	-0.264	-0.645	-0.383	-0.0787
GACACUUUCACUAUAUAUAGUGGC [hsa-mir-3156-3]	-0.533	-0.049	-0.25	-0.354	-0.0836
UUGAUUCAGUAAAACAUUCAA [hsa-mir-891b]	-0.902	-0.376	-0.189	-0.695	-0.0671
AUUGCUGGACGCUGCCCUGGGCAU [hsa-mir-25]	1.4	0.362	-0.192	1.12	0.488
ACAUGAAAAUAAAAUGUAAAUUAUUUUAUUUCUAUCA [hsa-mir-3671]	-0.163	0.665	-0.346	0.652	0.294
GGUUGUUAGAUAGACAACU [hsa-mir-4510]	-0.496	0.632	0.718	0.328	0.19
UGCCCUAGCGGCU [hsa-mir-4268]	-0.238	-0.212	-0.151	-0.211	-0.708
CGCGCCCGGCCUAACUUUUAAGAAACGUCGGCCCGGGAGCG [hsa-mir-5095]	1.15	1.24	-0.0298	1.27	0.695
GGAGACACUUUCACUAUAUAUAGUGGCUCC [hsa-mir-3156-2]	-1.03	-0.948	-0.175	-1.34	-0.571
CUUUUGGAAAAUAGAAAAG [hsa-mir-3184]	-0.0491	-0.24	1.56	-0.433	0.161
